In the DeepSol protein solubility set:

Assay: soluble on expression in E. coli; label from the status in PepcDB or PDB records

Row | Sequence | soluble on expression in E. coli
1 | KERERLEEKLEDANERIAELVKLEERQRIARDLHDTLGQKLSLIGLKSDLARKLIYKDPEQAARELKSVQQTARTSLNEVRKIVSSMKGIRLKDELINIKQILEAADIMFIYEEEKWPENISLLNENILSMCLKEAVTNVVKHSQAKTCRVDIQQLWKEVVITVSDDGTFKGEENSFSKGHGLLGMRERLEFANGSLHIDTENGTKLTMAIPNNSK | not soluble
2 | KESCKMFIGGLNWDTTEDNLREYFGKYGTVTDLKIMKDPATGRSRGFGFLSFEKPSSVDEVVKTQHILDGKVIDPKRAIPRDEQDKTGKIFVGGIGPDVRPKEFEEFFSQWGTIIDAQLMLDKDTGQSRGFGFVTYDSADAVDRVCQNKFIDFKDRKIEIKRAEPRH | soluble
3 | KGKSFIWIKRQLDPKVAEEVKALGLENFVFEKELKRHYPMGNLFAHVIGFTDIDGKGQEGLELSLEDSLHGEDGAEVVLRDRQGNIVDSLDSPRNKAPKNGKDIILSLD | not soluble
4 | KGLMSKVKVITRGEATRLINKEDAVVVDLRQRDDFRKGHIAGAINLLPSDIKANNVGELEKHKSQPIIVVDGSGMQAQEPASALNKAGFEKVFVLKEGIAGWSGENLPLVRGK | not soluble
5 | KHGPLHPIPNRPVLTRARASLPLVLYIDRFLGGVFSKRRIPKRTQFGPVEGPLVRGSELKDCYIHLKVSLDKGDRKERDLHEDLWFELSDETLCNWMMFVRPAQNHLEQNLVAYQYGHHVYYTTIKNVEPKQELKVWYAASYAEFVNQKIHD | soluble
6 | KHSCIAVIDAGSTGSRLHIYSYDTDDTNTPIHIEEIWNKKIKPGFASIQPNSVTIDAYLTMLLADAPIHNIPVYFYATAGMRLLPQSQQKKYYDELEYWFRQQSQWQLVEAKTITGNDEALFDWLAVNYKLDTLKSVQNKSVGVMDMGGASVQIVFPMPKNAEISKHNQVELNIYGQNINLYVHSFLGLGQTEMSHQFLNSPSCFANDYPLPDGESGQGNAPSCKEEVTSLMNSVHKVNQQIQPLLALNPVNEWYSIGGISNLASSQLFHFENSELTNQSLLQQGDNQICHQQWDILNGQYPDDEYLYQYCLLSSYYYALMVDGYGINPNQTIHYIPPEQNLDWTIGVVLHRA | soluble
7 | KIDDGTELKLKGEKLRYVSRGGLKLEKALAVFNLSVEDMITIDIGASTGGFTDVMLQNGAKLVYAVDVGTNQLVWKLRQDDRVRSMEQYNFRYAEPVDFTEGLPSFASIDVSFISLNLILPALAKILVDGGQVVALVKPQFEAGREQIGKNGIVRESSIHEKVLETVTAFAVDYGFSVKGLDFSPIQGGHGN | not soluble
8 | KITGLLDGDRVIVFDKNGISKLSARHYGNVEGNFLSLSLVEALYLINLGWLEVKYKDNKPLSFEELYEYARNVEERLCLKYLVYKDLRTRGYIVKTGLKYGADFRLYERGANIDKEHSVYLVKVFPEDSSFLLSELTGFVRVAHSVRKKLLIAIVDADGDIVYYNMTYVKP | soluble
9 | KLKARSIKIQRRMDAILLRMPIFGDIVRKGTIARWGRTTATLIAAGVPLVDVLDSTAGAAGNLIYEEATREIRTRVIQGLSMTSGMRATELFPNMMLQMSSIGEESGSLDDMLNKAAEFYEDEVDNAVGRLSAMMEP | not soluble
10 | KNFHVVLEAAWLVRDVKTADDAIGVAISEAGKRLNPKLDFVEVDVGTTSCPVCGEPFSSVFIAANTALVGLIFEMKVFDAESAEHAERIAKSVIGKSLRDVP | not soluble
11 | KPAPSAEHSYAEGEGLVKVFDNAPAEFTIFAVDTKGVARTDGGDPFEVAINGPDGLVVDAKVTDNNDGTYGVVYDAPVEGNYNVNVTLRGNPIKNMPIDVKCIEGANGEDSSFGSFTFTVAAKNKKGEVKTYGGDKFEVSITGPAEEITLDAIDNQDGTYTAAYSLVGNGRFSTGVKLNGKHIEGSPFKQVLGNPGKKNPEVKSFTTTRTAN | soluble
12 | KQNSLMGITGGLTARYISEKYFAMICGAQVELNISQRGWDELFEVPGENGEPVEDPTRKYTRKMTYLDIPFLAHLAFGNEKGLQFFINAGPQIGLLIGESESMENIDMNALTDTQKAVYGDKIQNKFDYGIAGGGGIEFRTKKAGSFLLEGRYYFALSDFYSTTKKDYFSRAAHGTITVKLTYLFDLK | not soluble
13 | KQVENYDSWEDLVSSIDTIERKDDGTLEIYLTWKNGAISHHPSTITNKKCPQKMLQFYESHLTFRENE | soluble
14 | KSTVEKSTVGQKVAIVREDTGTIAELAEKALGNMVDIVYAGSDLKEAEEAVKKEKAPAIIVIPKGFSQSLESGEKARLEIVWYLRGTGLSEAVSTGTISSLIESLKVQLASFLLNDPKKAQLLFDPLEIVQHTYLRGSLFKNHSPEAIMNVFYSQN | soluble
15 | KTIAIIGAGIVGVSTAIWLQRDGHQVVLIDRAGPAEGTSYGNGGVLASCSIVPVTTPGLIAKAPRMLFSPNEPLFLRWGYLPRLAPWLLRYLRRANARDATQTAAAMAPIVGDSLADHLALAQGTGAEKWVVPSDYLFIYNDRAHFQGDAFGWNLRRQNGFVWDEMEAEEFRGYDPIFSSDLRFAVRLKDHGRITDPGQYVKDLAAHVVASGGQLIQADVEDIARENGRVTGVRAGGRTIPCDAAVIATGVWSGPLARKLGLEVPLEAERGYHIEFWNPNFMPKSPVMVAARKFVATPMEGRLRLAGVVEFGGLDAGPSRAPIELLKRSAAAVFPGLKADEVTEWLGHRPAPADSIPVIGELPHLKGAFTGFGHHHVGLTGGPKTGRILAQLIAGRQPNIDL | not soluble
16 | KVQSTFAKYSRVRSMTGMTGAEAAKRLLNSQGIYDVQVRKVAGNLTDHYDPRNKTLNLSESVYDSPSVAAIGVAAHECGHAIQDNTEYAPLKIRGAIVPVVNIGTQLSWPM | not soluble

Row | Sequence | soluble on expression in E. coli
17 | KVWDRAVDFLAANESRVRTETRRIGGADFLVWRWIQPSASCDKILVIPSKVWQGQAFHLDRRNSPPNSLTPCLKIRNMFDPVMEIGDQWHLAIQEAILEKCSDNDGIVHIAVDKNSREGCVYVKCLSPEYAGKAFKALHGSWFDGKLVTVKYLRLDRYHHRFPQALTSNTPLKPSNKHMNSMSHLRLRTGLTNSQGSS | soluble
18 | LFKPNYHFFPITGWMNDPNGLIFWKGKYHMFYQYNPRKPEWGNICWGHAVSDDLVHWRHLPVALYPDDETHGVFSGSAVEKDGKMFLVYTYYRDPTHNKGEKETQCVVMSENGLDFVKYDGNPVISKPPEEGTHAFRDPKVNRSNGEWRMVLGSGKDEKIGRVLLYTSDDLFHWKYEGAIFEDETTKEIDCPDLVRIGEKDILIYSITSTNSVLFSMGELKEGKLNVEKRGLLDHGTDFYAAQTFFGTDRVVVIGWLQSWLRTGLYPTKREGWNGVMSLPRELYVENNELKVKPVDELLALRKRKVFETAKSGTFLLDVKENSYEIVCEFSGEIELRMGNESEEVVITKSRDELIVDTTRSGVSGGEVRKSTVEDEATNRIRAFLDSCSVEFFFNDSIAFSFRIHPENVYNILSVKSNQVKLEVFELENIWL | soluble
19 | LFQKLHQSLQVGEKEEDMYELLISSSMTTVMADAAWLEIRDNKGGLKAFQNSNIDEYDVFEIKKALRKNQVNISSEPQYIKDILSYPHTEKIKHLDYKSFLLIPLTSNNQLIGTLVLLKNLNDGFDKEMVDIIFTFVSQASISIKNFRLMSDAIQTERYQEELKIAKD | not soluble
20 | LGASWHRPDKCCLGYQKRPLPQVLLSSWYPTSQLCSKPGVIFLTKRGRQVCADKSKDWVKKLMQQLPVTAR | soluble
21 | LGGAQETAETMAKESMVLLKNTDDTLPLSGDESVLLTGPGVDSNGNNTRALMQHGGWTLGWQGASAGGPFPRQNLLEAELRARVGSLTHVPTSYENTTWWAGEGDGGNQQSDENGNFDFTAEQRSRVESAGPESDVVVVVLGEGTHNEGFGDRDELVLDESQQALLDTVVESTDDSAPIIGVMLAGSPRGSPETFSQLDALLFAGQPGSDGGVAIAETLVGEYNPSGKLPFSWPENVGTTPVQYTRYDPTSTGGTDNTAIYEYGHGLSYTDF | not soluble
22 | LIGYVRVSTNDQNTDLQRNALNCAGCELIFEDKISGTKSERPGLKKLLRTLSAGDTLVVWKLDRLGRSMRHLVVLVEELRERGINFRSLTDSIDTSTPMGRFFFHVMGALAEMERELIVERTKAGLETARAQGRIGGRRPKLTPEQWAQAGRLIAAGTPRQKVAIIYDVGVSTLYKRFPAGDK | soluble
23 | LKDTLHNSELDDAERSSSDINNLFHSKPVKDISALDLNASLGNFQEIIIYDEHNNKLFETSNDNTVRVEPGYEHRYFDRVIKKRYKGIEYLIIKEPITTQDFKGYSLLIHSLENYDNIVKS | not soluble
24 | LKQKVENLFNEKCGEALGLKQAVKVPFALFESFPEDFYVEGLPEGVPFRRPSTFGIPRLEKILRNKAKIKFIIKKPEMFETAIKES | soluble
25 | LLLYIHGFNSSPLSMKANLMREYCAQHRPDIKVIVPQLPCFPEQAAQLLLDIVEQYKDDYNIGLVGSSLGGYMSTWLNAKYGFKAVVVNPAVKPYELLVDYLGEQTNPYTRETYTLEACHIDELKALDVQSIASPHSFWLLQQTEDEVLDYRQAVDKFAKAKQTVEQGGDHSFVGFERYPAKIIEFLE | not soluble
26 | LNKWMKELSKTTSLDPVKPVDVLLTENDITIKNIRDMNRLRPFGTDFSRPIFEMDDLSVSSVKAIGQQKNHLKLTLGESNIAALFWQNGHLEPELQDEQPINILGSVQINEWNGNQSPQ | not soluble
27 | LPKVSEDHLAARRSQILDGARRCFAEYGYDGATVRRLEEVTGLSRGAIFHHFKDKDGLFLALAHEDATRMADVVAHEGLVQVMRDMLAQPEQFDWLGTRLEIARRLRNDPDFRRSWSQRSAELTEATMARLARQKSAGRLRDDVPTDVLIGYLDLVLDGLVARIASGHAGDNLSAVLDLVEESVRRRD | not soluble
28 | LSKVVIRRLPPTLTKEQLQEHLQPMPEHDYFEFFSNDTSLYPHMYARAYINFKNQEDIILFRDRFDGYVFLDNKGQEYPAIVEFAPFQKAA | soluble
29 | LSNGQGSRVLHVVQTLYPFSSVTEEELNFEKGETMEVIEKPENDPEWWKCKNARGQVGLVPKNYVVVLSDGPALHPAH | soluble
30 | LTLPGIANLRRLRVDDVAIPKVEIVAVPVDIGKEDLVAVFREHGFSRLPVYRETLDQPLGLVLLKDLALQHGFNGNGSFDLKTLLRPLLYAPPSMPIGVLLQKMQRERVHMALVIDEYGGVDGLVTIEDLIETVIGEIEDEHDEVEGPLWTLEKPGVYMAQSRTPLDEFEAEIGLRLRREEEDEEIDTLGGLV | not soluble
31 | LVGSRREIAARNLELCFPEKSPAERERLLKENFASSGIAFFEMAMSWWWPKARLARLAHIEGLEHLREAQAQGEGVILMALHFTTLEIGAALLGQVHTIDGMYREHDNPVFDYVQRRGRERHNLDATAIEREDVRSMLKVLRGGRAIWYAPDQDYGAKQSLFVPLFGIPAATVTATTKFARLGRARVLPFTQSRLADGSGYRLTIHPPLEDFPGESEEADCLRINQWVERCVRQQPEQYLWAHRRFKTRPPGEAK | not soluble
